Here are results for two molecules from US20060239990A1 (published 2006).

One assay concerns the target T1, RelA (p65) in 293 cells (UniProt Q04206 1-551).
T1 construct: also called endogenous p65
Nature of the assay: immunoprecipitation with anti-HA antibody from transfected 293 cells, immunoblot for p65. The text has this:
(§1) To map IκB-α domains that interacted with PRMT2, 293 cells were transfected with HA-tagged PRMT2 (FIG. 5C) and His-tagged derivatives of the indicated IκB-α expression vectors (FIG. 5B) as indicated. 24 hrs later cells were harvested in cell lysis buffer and cell lysates were immunoprecipitated with agarose-conjugated antibody to His (IκB-α) (FIG. 5D, lanes 1-4) and HA (PRMT2) (FIG. 5D, lanes 5-6), fractionated by SDS-PAGE and analyzed by immunoblotting with antibody to HA to detect PRMT2 ((FIG. 5D lanes 1, 2 and lanes 5, 6) and His (FIG. 5D, lanes 3, 4). To map the region of PRMT2 that interacted with endogenous IκB-α and p65, 293 cells were transfected with HA-tagged PRMT2 (FIG. 5C) derivatives as indicated. Cells were harvested 24 hrs after transfection in cell lysis buffer, immunoprecipitated with agarose-conjugated antibody to HA to detect PRMT2 and derivatives (FIG. 5E, lanes 7-15), fractionated by SDS-PAGE and analyzed by immunoblotting with antibody to p65 (FIG. 5E, lanes 7-9), IκB-α (FIG. 5E, lanes 10-12) or HA (FIG. 5E, lanes 13-15).
A polyclonal antibody to recombinant PRMT2 was used to examine the association between endogenous PRMT2 and IκB-α in vivo. […] The domain of IκB-α required for association with PRMT2 was mapped using in vivo immunoprecipitation assays where HA-tagged PRMT2 was coexpressed with truncation mutants of His-tagged IκB-α (FIG. 5B) in 293 cells. The ankyrin domain was both necessary and sufficient for this association (FIG. 5D, lanes 1 and 2). The domain of PRMT2 that interacted with endogenous IκB-α was mapped by immunoprecipitation following expression HA-tagged PRMT2 truncation mutants (FIG. 5C). […] When the ratios of PRMT2 or PRMT2-A binding to IκB-α were compared, both interacted with IκB-α with similar affinity.
For orientation: In western blotting, separated proteins are transferred to a membrane and probed.

Assay [1] concerns the target T2, IκB-α, endogenous in 293 cells (human, UniProt P25963 1-317).
T2 construct: also called endogenous IκB-α
T2 sequence (looked up): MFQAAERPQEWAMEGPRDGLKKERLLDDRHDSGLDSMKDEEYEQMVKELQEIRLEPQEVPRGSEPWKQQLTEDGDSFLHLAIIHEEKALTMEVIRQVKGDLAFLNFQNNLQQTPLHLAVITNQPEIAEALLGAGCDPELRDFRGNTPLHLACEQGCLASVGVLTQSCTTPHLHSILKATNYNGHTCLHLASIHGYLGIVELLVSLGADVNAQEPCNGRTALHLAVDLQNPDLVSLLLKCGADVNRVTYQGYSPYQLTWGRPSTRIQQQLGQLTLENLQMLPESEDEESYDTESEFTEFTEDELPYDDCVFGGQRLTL
Nature of the assay: immunoprecipitation with anti-HA antibody from transfected 293 cells, immunoblot for IκB-α.
Source text: as §1
(§2) A polyclonal antibody to recombinant PRMT2 was used to examine the association between endogenous PRMT2 and IκB-α in vivo. […] The domain of IκB-α required for association with PRMT2 was mapped using in vivo immunoprecipitation assays where HA-tagged PRMT2 was coexpressed with truncation mutants of His-tagged IκB-α (FIG. 5B) in 293 cells. […]

Assay [2] addresses T2, IκB-α, endogenous in 293 cells. Nature of the assay: immunoprecipitation with anti-HA antibody from transfected 293 cells, immunoblot for endogenous IκB-α.
Source text: as §1, §2

T1 sequence (Q04206 whole entry): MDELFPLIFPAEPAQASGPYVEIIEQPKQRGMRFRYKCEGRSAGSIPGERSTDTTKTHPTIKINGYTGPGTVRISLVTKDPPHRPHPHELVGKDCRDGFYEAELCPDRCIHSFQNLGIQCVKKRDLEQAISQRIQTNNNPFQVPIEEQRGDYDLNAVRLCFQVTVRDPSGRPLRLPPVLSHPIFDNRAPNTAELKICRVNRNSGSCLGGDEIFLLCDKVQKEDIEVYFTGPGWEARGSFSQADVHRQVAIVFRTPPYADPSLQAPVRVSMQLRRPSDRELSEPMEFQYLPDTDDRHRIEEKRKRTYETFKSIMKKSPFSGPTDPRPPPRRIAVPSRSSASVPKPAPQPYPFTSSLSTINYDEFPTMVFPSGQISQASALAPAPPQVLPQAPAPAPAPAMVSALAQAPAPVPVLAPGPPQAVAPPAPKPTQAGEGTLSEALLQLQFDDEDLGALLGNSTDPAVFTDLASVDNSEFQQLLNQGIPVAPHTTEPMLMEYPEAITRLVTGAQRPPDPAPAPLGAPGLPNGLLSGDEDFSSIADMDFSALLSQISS

B1: HA-tagged PRMT2-N (first 95 amino acids of PRMT2) (enzyme)
chain: MATSGDCPRSESQGEEPAECSEAGLLQEGVQPEEFVAIADYAATDETQLSFLRGEKILILRQTTADWWWGERAGCCGYIPANHVGKHVDEYDPED
notes: Expressed by transfection in 293 cells; not shown: HA tag at the C-terminus
As to B1, the binding result (in the assay with RelA (p65) in 293 cells; in assay [1]) was “no binding” in each case.

B2: HA-tagged PRMT2-A (alternative splice variant, first 218 amino acids of PRMT2) (enzyme)
chain: MATSGDCPRSESQGEEPAECSEAGLLQEGVQPEEFVAIADYAATDETQLSFLRGEKILILRQTTADWWWGERAGCCGYIPANHVGKHVDEYDPEDTWQDEEYFGSYGTLKLHLEMLADQPRTTKYHSVILQNKESLTDKVILDVGCGTGIISLFCAHYARPRAVYAVEASEMAQHTGQLVLQNGFADIITVYQQKVEDVVLPEKVDVLVSEWMGTCLL
notes: as for B1
On to B2, for which the binding result is listed as “binds” in assay [2] and “no binding” in the assay with RelA (p65) in 293 cells.
